# Positions count from the first letter of the chain named. Numbers in names are those of the source.
# B1: TDP-43 prion-like domain, TDP-43(267–414) (domain or fragment, UniProt Q13148 267-414, looked up)
# chain: NRQLERSGRFGGNPGGFGNQGGFGNSRGGGAGLGNNQGSNMGGGMNFGAFSINPAMMAAAQAALQSSWGMMGMLASQQNQSGPSGNNQNQGNMQREPNQAFGSGNNSYSGSNSGAAIGWGSASNAGSGSGFNGGFGSSMDSKSSGWGM
# notes: Uniformly 15N or 15N/13C labelled for NMR; Fibril seeds of this molecule (from the SSNMR rotor) are the target in the cross-seeding assay; also called TDP-43 PrLD; PrLD of TDP-43; source: E. coli BL21 Star (DE3), inclusion bodies, purified (Ni-NTA in 8 M urea, PD-10 desalting at pH 4)
# B2: TDP-43 PrLD variant F313A+F316A (domain or fragment, UniProt Q13148 267-414, looked up)
# chain: B1 chain with F47A, F50A
# notes: TDP-43 prion-like domain, residues 267-414, with the 2 central Phe residues changed to Ala; The text prints the variant once as F312A+F316A and otherwise as F313A+F316A; also called double mutant; F312A+F316A (as printed once); source: desalted from the 8 M urea-containing solution with a PD-10 column
# Experiments:
# [1] = biological target: the molecule itself; assay: solution NMR, 1H-15N HSQC peak intensities over time; 55 and 110 μM TDP-43 PrLD, pH 4.0, 298 K, 1 mM CD3COOD in 85/15 H2O/D2O, no salt or RNA; first spectrum within 1 hour, second after approximately 20 hours; self-association into aggregates and droplets
# [2] = biological target: B1; assay: cross-seeding followed by ThT fluorescence; 5 μM of each protein variant in 1 mM CD3COOD with 40 μM ThT, 2% (0.12 μM) seeds of the wild-type fibrils studied by SSNMR, 25°C, excitation 450 nm, emission 480 nm; conditions: both partners purified
binding result [2],Binder,binding result [1]
–,B1,binds
binds,B2,–

# Source: article PMC8109789, “Phe-Gly motifs drive fibrillization of TDP-43’s prion-like domain condensates” (PLoS Biology, 2021)
